Results published in paper PMC6613617, “Human DNA polymerase delta requires an iron–sulfur cluster for high-fidelity DNA synthesis”.

Legend:
[1] = biological target: T1, POLD1-HY;POLD2;POLD3;POLD4 (Homo sapiens;Homo sapiens;Homo …, UniProt P28340;P49005;Q15054;Q9HCU8 1-1107;1-469;1-466;1-107, H1066Y|||); assay: EMSA; without PCNA; not impaired; EMSA: 20 mM Tris-HCl pH 8.0, 20 mM KCl, 1 mM EDTA, 0.5 mM TCEP, 20 nM probe, 10-80 nM Pol delta, 25 C 30 min; 7% native PAGE, 0.5x TBE; settings: protein: recombinant;recombinant;recombinant;recombinant; copies: 1;1;1;1; label: 5'-fluorescein (FAM) on strand 1; blunt; one unpaired A in strand 2 as printed
T1 sequence (P28340 whole entry H1066Y, chain 1 of 4): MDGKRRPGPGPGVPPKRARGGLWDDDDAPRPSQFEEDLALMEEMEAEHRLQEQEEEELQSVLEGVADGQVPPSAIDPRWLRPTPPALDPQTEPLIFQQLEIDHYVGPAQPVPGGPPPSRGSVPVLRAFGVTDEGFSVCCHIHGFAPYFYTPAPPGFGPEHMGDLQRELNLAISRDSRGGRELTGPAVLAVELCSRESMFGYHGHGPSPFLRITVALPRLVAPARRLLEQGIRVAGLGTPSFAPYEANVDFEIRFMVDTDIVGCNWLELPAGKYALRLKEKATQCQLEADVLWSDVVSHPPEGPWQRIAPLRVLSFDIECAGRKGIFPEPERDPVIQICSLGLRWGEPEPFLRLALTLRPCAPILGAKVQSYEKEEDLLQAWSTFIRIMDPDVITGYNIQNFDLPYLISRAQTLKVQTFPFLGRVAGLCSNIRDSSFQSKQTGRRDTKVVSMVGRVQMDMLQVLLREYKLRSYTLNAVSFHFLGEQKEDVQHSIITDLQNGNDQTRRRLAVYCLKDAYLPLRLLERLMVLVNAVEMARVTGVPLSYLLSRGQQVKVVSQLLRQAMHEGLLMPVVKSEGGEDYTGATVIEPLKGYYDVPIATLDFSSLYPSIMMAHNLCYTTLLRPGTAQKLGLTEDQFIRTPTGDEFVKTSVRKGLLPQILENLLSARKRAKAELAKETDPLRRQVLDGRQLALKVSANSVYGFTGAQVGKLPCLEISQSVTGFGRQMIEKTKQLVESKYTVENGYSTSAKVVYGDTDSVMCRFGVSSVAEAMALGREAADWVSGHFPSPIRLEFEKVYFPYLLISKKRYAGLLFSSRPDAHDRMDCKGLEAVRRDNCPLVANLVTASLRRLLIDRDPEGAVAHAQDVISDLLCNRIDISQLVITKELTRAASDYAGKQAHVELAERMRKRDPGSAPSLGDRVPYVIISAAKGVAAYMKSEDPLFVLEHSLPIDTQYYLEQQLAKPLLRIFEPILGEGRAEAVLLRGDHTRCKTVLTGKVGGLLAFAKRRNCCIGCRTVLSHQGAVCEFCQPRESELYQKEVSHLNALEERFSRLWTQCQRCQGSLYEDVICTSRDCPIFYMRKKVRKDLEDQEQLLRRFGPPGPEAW
T1 sequence (P49005 whole entry, chain 2 of 4): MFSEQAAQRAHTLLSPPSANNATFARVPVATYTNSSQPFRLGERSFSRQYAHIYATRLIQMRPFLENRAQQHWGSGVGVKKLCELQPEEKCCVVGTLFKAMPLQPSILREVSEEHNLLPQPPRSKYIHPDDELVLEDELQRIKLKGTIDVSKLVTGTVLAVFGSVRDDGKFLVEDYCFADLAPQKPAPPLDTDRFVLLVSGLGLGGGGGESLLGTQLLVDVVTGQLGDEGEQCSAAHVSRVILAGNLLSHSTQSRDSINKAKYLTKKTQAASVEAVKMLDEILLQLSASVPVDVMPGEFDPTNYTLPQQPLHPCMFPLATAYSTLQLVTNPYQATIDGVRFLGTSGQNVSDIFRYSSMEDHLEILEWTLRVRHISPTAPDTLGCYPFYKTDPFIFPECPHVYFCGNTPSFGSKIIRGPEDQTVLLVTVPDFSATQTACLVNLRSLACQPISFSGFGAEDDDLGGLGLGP
T1 sequence (Q15054 whole entry, chain 3 of 4): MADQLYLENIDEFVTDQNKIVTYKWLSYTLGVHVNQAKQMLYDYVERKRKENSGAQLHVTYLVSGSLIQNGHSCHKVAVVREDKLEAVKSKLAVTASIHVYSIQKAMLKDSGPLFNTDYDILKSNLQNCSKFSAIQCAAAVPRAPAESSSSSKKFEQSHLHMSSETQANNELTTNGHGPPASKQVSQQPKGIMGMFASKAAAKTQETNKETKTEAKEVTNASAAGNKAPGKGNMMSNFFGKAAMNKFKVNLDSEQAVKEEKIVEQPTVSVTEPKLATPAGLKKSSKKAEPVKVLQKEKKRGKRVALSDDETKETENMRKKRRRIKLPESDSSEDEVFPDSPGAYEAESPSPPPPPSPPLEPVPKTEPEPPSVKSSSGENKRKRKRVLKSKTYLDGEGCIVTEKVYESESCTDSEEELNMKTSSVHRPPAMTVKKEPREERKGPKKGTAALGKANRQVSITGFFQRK
T1 sequence (Q9HCU8 whole entry, chain 4 of 4): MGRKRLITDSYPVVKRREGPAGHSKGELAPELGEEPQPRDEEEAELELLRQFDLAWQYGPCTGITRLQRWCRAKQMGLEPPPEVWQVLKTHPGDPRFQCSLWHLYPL

[2] = biological target: T2, POLD1-HW;POLD2;POLD3;POLD4 (Homo sapiens;Homo sapiens;Homo …, UniProt P28340;P49005;Q15054;Q9HCU8 1-1107;1-469;1-466;1-107, H1066W|||); assay: as above; settings: protein: recombinant;recombinant;recombinant;recombinant; copies: 1;1;1;1; label: 5'-fluorescein (FAM) on strand 1; blunt; one unpaired A in strand 2 as printed
T2 sequence (P28340 whole entry H1066W, chain 1 of 4): as the sequence (P28340 whole entry H1066Y, chain 1 of 4) above, with Y1066W counted along it
T2 sequence (P49005 whole entry, chain 2 of 4): as the sequence (P49005 whole entry, chain 2 of 4) above
T2 sequence (Q15054 whole entry, chain 3 of 4): as the sequence (Q15054 whole entry, chain 3 of 4) above
T2 sequence (Q9HCU8 whole entry, chain 4 of 4): as the sequence (Q9HCU8 whole entry, chain 4 of 4) above

[3] = biological target: T3, POLD1-CS;POLD2;POLD3;POLD4;PCNA (Homo sapiens;Homo sapiens;Homo …, UniProt P28340;P49005;Q15054;Q9HCU8;P12004 1-1107;1-469;1-466;1-107;1-261, C1076S||||); assay: EMSA; copurified with PCNA; defect alleviated; EMSA: 20 mM Tris-HCl pH 8.0, 20 mM KCl, 1 mM EDTA, 0.5 mM TCEP, 20 nM probe, 10-80 nM Pol delta, 25 C 30 min; 7% native PAGE, 0.5x TBE; settings: protein: recombinant;recombinant;recombinant;recombinant;recombinant; copies: 1;1;1;1;3; label: 5'-fluorescein (FAM) on strand 1; blunt; one unpaired A in strand 2 as printed
[4] = biological target: T4, POLD1-CS;POLD2;POLD3;POLD4 (Homo sapiens;Homo sapiens;Homo …, UniProt P28340;P49005;Q15054;Q9HCU8 1-1107;1-469;1-466;1-107, C1076S|||); assay: EMSA; without PCNA; no defect; EMSA: 20 mM Tris-HCl pH 8.0, 20 mM KCl, 1 mM EDTA, 0.5 mM TCEP, 20 nM probe, 10-80 nM Pol delta, 25 C 30 min; 7% native PAGE, 0.5x TBE; settings: protein: recombinant;recombinant;recombinant;recombinant; copies: 1;1;1;1; label: 5'-fluorescein (FAM); single strand
T4 sequence (P28340 whole entry C1076S, chain 1 of 4): as the sequence (P28340 whole entry H1066Y, chain 1 of 4) above, with Y1066H, C1076S counted along it
T4 sequence (P49005 whole entry, chain 2 of 4): as the sequence (P49005 whole entry, chain 2 of 4) above
T4 sequence (Q15054 whole entry, chain 3 of 4): as the sequence (Q15054 whole entry, chain 3 of 4) above
T4 sequence (Q9HCU8 whole entry, chain 4 of 4): as the sequence (Q9HCU8 whole entry, chain 4 of 4) above

[5] = biological target: T3, POLD1-CS;POLD2;POLD3;POLD4;PCNA; assay: EMSA; copurified with PCNA; no defect; EMSA: 20 mM Tris-HCl pH 8.0, 20 mM KCl, 1 mM EDTA, 0.5 mM TCEP, 20 nM probe, 10-80 nM Pol delta, 25 C 30 min; 7% native PAGE, 0.5x TBE; settings: protein: recombinant;recombinant;recombinant;recombinant;recombinant; copies: 1;1;1;1;3; label: 5'-fluorescein (FAM); single strand
[6] = biological target: T1, POLD1-HY;POLD2;POLD3;POLD4; assay: EMSA; without PCNA; EMSA: 20 mM Tris-HCl pH 8.0, 20 mM KCl, 1 mM EDTA, 0.5 mM TCEP, 20 nM probe, 10-80 nM Pol delta, 25 C 30 min; 7% native PAGE, 0.5x TBE; settings: protein: recombinant;recombinant;recombinant;recombinant; copies: 1;1;1;1; label: 5'-fluorescein (FAM) on strand 1; 5' overhang 16 nt on template strand 2; one unpaired A in strand 2 as printed
[7] = biological target: T2, POLD1-HW;POLD2;POLD3;POLD4; assay: as above; settings: protein: recombinant;recombinant;recombinant;recombinant; copies: 1;1;1;1; label: 5'-fluorescein (FAM) on strand 1; 5' overhang 16 nt on template strand 2; one unpaired A in strand 2 as printed
[8] = biological target: POLD1 WT (catalytic subunit of Pol delta);POLD2;POLD3;POLD4 (Homo sapiens;Homo sapiens;Homo …, UniProt P28340;P49005;Q15054;Q9HCU8 1-1107;1-469;1-466;1-107, |||); assay: as above; settings: protein: recombinant;recombinant;recombinant;recombinant; copies: 1;1;1;1; label: 5'-fluorescein (FAM) on strand 1; 5' overhang 16 nt on template strand 2; one unpaired A in strand 2 as printed
POLD1 WT (catalytic subunit of Pol delta);POLD2;POLD3;POLD4, sequence (P28340 whole entry, stated change not applied, chain 1 of 4): as the sequence (P28340 whole entry H1066Y, chain 1 of 4) above, with Y1066H counted along it
POLD1 WT (catalytic subunit of Pol delta);POLD2;POLD3;POLD4, sequence (P49005 whole entry, stated change not applied, chain 2 of 4): as the sequence (P49005 whole entry, chain 2 of 4) above
POLD1 WT (catalytic subunit of Pol delta);POLD2;POLD3;POLD4, sequence (Q15054 whole entry, stated change not applied, chain 3 of 4): as the sequence (Q15054 whole entry, chain 3 of 4) above
POLD1 WT (catalytic subunit of Pol delta);POLD2;POLD3;POLD4, sequence (Q9HCU8 whole entry, stated change not applied, chain 4 of 4): as the sequence (Q9HCU8 whole entry, chain 4 of 4) above

[9] = biological target: POLD1-HW;POLD2;POLD3;POLD4;PCNA (Homo sapiens;Homo sapiens;Homo …, UniProt P28340;P49005;Q15054;Q9HCU8;P12004 1-1107;1-469;1-466;1-107;1-261, H1066W||||); assay: EMSA; copurified with PCNA; EMSA: 20 mM Tris-HCl pH 8.0, 20 mM KCl, 1 mM EDTA, 0.5 mM TCEP, 20 nM probe, 10-80 nM Pol delta, 25 C 30 min; 7% native PAGE, 0.5x TBE; settings: protein: recombinant;recombinant;recombinant;recombinant;recombinant; copies: 1;1;1;1;3; label: 5'-fluorescein (FAM) on strand 1; 5' overhang 16 nt on template strand 2; one unpaired A in strand 2 as printed
[10] = biological target: POLD1 WT (catalytic subunit of Pol delta);POLD2;POLD3;POLD4;PCNA (Homo sapiens;Homo sapiens;Homo …, UniProt P28340;P49005;Q15054;Q9HCU8;P12004 1-1107;1-469;1-466;1-107;1-261, ||||); assay: as above; settings: protein: recombinant;recombinant;recombinant;recombinant;recombinant; copies: 1;1;1;1;3; label: 5'-fluorescein (FAM) on strand 1; 5' overhang 16 nt on template strand 2; one unpaired A in strand 2 as printed
[11] = biological target: POLD1-HY;POLD2;POLD3;POLD4;PCNA (Homo sapiens;Homo sapiens;Homo …, UniProt P28340;P49005;Q15054;Q9HCU8;P12004 1-1107;1-469;1-466;1-107;1-261, H1066Y||||); assay: as above; settings: protein: recombinant;recombinant;recombinant;recombinant;recombinant; copies: 1;1;1;1;3; label: 5'-fluorescein (FAM) on strand 1; 5' overhang 16 nt on template strand 2; one unpaired A in strand 2 as printed
[12] = biological target: T4, POLD1-CS;POLD2;POLD3;POLD4; assay: EMSA; without PCNA; less second (super-shifted) band than WT; EMSA: 20 mM Tris-HCl pH 8.0, 20 mM KCl, 1 mM EDTA, 0.5 mM TCEP, 20 nM probe, 10-80 nM Pol delta, 25 C 30 min; 7% native PAGE, 0.5x TBE; settings: protein: recombinant;recombinant;recombinant;recombinant; copies: 1;1;1;1; label: 5'-fluorescein (FAM) on strand 1; 5' overhang 16 nt on template strand 2; one unpaired A in strand 2 as printed
[13] = biological target: T3, POLD1-CS;POLD2;POLD3;POLD4;PCNA; assay: EMSA; copurified with PCNA; less second (super-shifted) band than WT; EMSA: 20 mM Tris-HCl pH 8.0, 20 mM KCl, 1 mM EDTA, 0.5 mM TCEP, 20 nM probe, 10-80 nM Pol delta, 25 C 30 min; 7% native PAGE, 0.5x TBE; settings: protein: recombinant;recombinant;recombinant;recombinant;recombinant; copies: 1;1;1;1;3; label: 5'-fluorescein (FAM) on strand 1; 5' overhang 16 nt on template strand 2; one unpaired A in strand 2 as printed

Measured: binding result

B1: dsDNA probe (Fig 3C,D) (dsDNA)
DNA 1: GTTTCTTCAATCTTCATCATACAGGTCAG
DNA 2: CTGACCTGTATGATGAAGATTGAAAGAAAC
binds: [1] | [2] | [3]

GTTTCTTCAATCTTCATCATACAGGTCAG (ssDNA) [ssDNA probe (Fig 3E,F)]
binds: [4] | [5]

B2: primer-template (Fig 3A,B) (mixed)
DNA 1: GTTTCTTCAATCTTCATCATACAGGTCAG
DNA 2: CTCGTCAGCATCTCGTCTGACCTGTATGATGAAGATTGAAAGAAAC
not listed: [1] | [2] | [3] | [4] | [5]
binds: all other assays above
